First the molecules themselves.
B1: glmS ribozyme (parent)
chain: AUAAAAGCGCCAGAACUACAGAAAUGUAGUUGACGAGGAGGAGGUUUAUCGAAUUUUCGGCGGAUGCCUCCAAA

± gives the standard error. For part of these data: This sample holds only a part of the variants without activity.

Details in all cases: with glucosamine-6-phosphate
Data set [1] covers variants of B1. Kind of data set: kcat; higher = faster cleavage; RNA array. The procedure, abridged:
(§1)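 Sequenced MiSeq chips were the platform: E. coli RNA polymerase transcribed barcoded ribozyme variants on them in situ, and a hybridised Cy3 probe tracked these at 37 °C. After glucosamine-6-phosphate (40 μM to 10 mM) in HEPES/KCl/Mg(OAc)2 buffer was flowed in, tiles were imaged over ~14 h. Signals normalised to baseline and to non-cleaving reference variants were reduced to per-tile medians and fit to one- or two-exponential decays to obtain kobs. kcat and KM were derived through weighted Michaelis–Menten fits across concentrations.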

Variants of B1 are the subject of data set [2]. Kind of data set: self-cleavage kobs at 40 uM GlcN6P; higher = faster cleavage; RNA array. Put shortly: as §1
The variants in data set [3] derive from B1. As to the kind of experiment: self-cleavage kobs at 160 uM GlcN6P; higher = faster cleavage; RNA array. Put shortly:
as §1

In data set [4] the parent is B1. As to the kind of experiment: self-cleavage kobs at 640 uM GlcN6P; higher = faster cleavage; RNA array. Put shortly:
as §1

Variants of B1 are the subject of data set [5]. Kind of data set: self-cleavage kobs at 2500 uM GlcN6P; higher = faster cleavage; RNA array. Put shortly: as §1
Variants of B1 are the subject of data set [6]. As to the kind of experiment: self-cleavage kobs at 10000 uM GlcN6P; higher = faster cleavage; RNA array. Put shortly: as §1
Data set [7] covers variants of B1. As to the kind of experiment: KM; higher = weaker cofactor use; RNA array. Put shortly: as §1

One may read the kcat as the maximal rate divided by the concentration of active sites. In general, KM refers to the substrate concentration at which the rate is half of its maximum.

Regarding A6G C50G C68U, the kcat in data set [1] worked out at 0.000115 ± 2.9e-05 s⁻¹. Also, the “self-cleavage kobs at 40 uM GlcN6P” value in data set [2] was 5.04e-05 ± 2.1e-05 s⁻¹. For the same variant, the “self-cleavage kobs at 160 uM GlcN6P” value in data set [3] amounted to 9.16e-05 ± 2.3e-05 s⁻¹. The “self-cleavage kobs at 640 uM GlcN6P” value in data set [4] is 0.000189 ± 4.8e-05 s⁻¹. Moreover, in data set [5], the “self-cleavage kobs at 2500 uM GlcN6P” value stood at 0.000173 ± 4.6e-05 s⁻¹. Moreover, the “self-cleavage kobs at 10000 uM GlcN6P” value in data set [6] stood at 7.92e-05 ± 2.5e-05 s⁻¹.

As for A15G U46A, in data set [1], the kcat was determined as 0.00453 ± 0.00029 s⁻¹. Further, in data set [7], the KM turned out to be 1890 ± 170 µM. In addition, the “self-cleavage kobs at 40 uM GlcN6P” value in data set [2] came out at 9.83e-05 ± 1.5e-05 s⁻¹. In addition, the “self-cleavage kobs at 160 uM GlcN6P” value in data set [3] was 0.0003 ± 9.6e-05 s⁻¹. Further, the “self-cleavage kobs at 640 uM GlcN6P” value in data set [4] worked out at 0.00114 ± 0.00035 s⁻¹. In addition, the “self-cleavage kobs at 2500 uM GlcN6P” value in data set [5] amounted to 0.00258 ± 0.00041 s⁻¹. Besides, the “self-cleavage kobs at 10000 uM GlcN6P” value in data set [6] is 0.00382 ± 0.00063 s⁻¹.

In the case of U56G G59A, the kcat in data set [1] came out at 5.14e-05 ± 3e-06 s⁻¹. The Michaelis-Menten constant (KM) in data set [7] came out at 1920 ± 460 µM. Also, the “self-cleavage kobs at 2500 uM GlcN6P” value in data set [5] was 3e-05 ± 8.2e-06 s⁻¹. Besides, in data set [6], the “self-cleavage kobs at 10000 uM GlcN6P” value came to 4.3e-05 ± 6.1e-06 s⁻¹.

With A6U G59A, the kcat in data set [1] was less than 1e-05 s⁻¹. For the same variant, in data set [2], the “self-cleavage kobs at 40 uM GlcN6P” value is less than 1e-05 s⁻¹. Also, the “self-cleavage kobs at 640 uM GlcN6P” value in data set [4] was less than 1e-05 s⁻¹.

As for G37A G66A, the kcat in data set [1] amounted to 0.00157 ± 0.00017 s⁻¹. For the same variant, in data set [7], the KM was 4290 ± 740 µM. In addition, the “self-cleavage kobs at 40 uM GlcN6P” value in data set [2] was determined as 1.72e-05 ± 8.5e-06 s⁻¹. The “self-cleavage kobs at 160 uM GlcN6P” value in data set [3] amounted to 6.39e-05 ± 2e-05 s⁻¹. In addition, the “self-cleavage kobs at 640 uM GlcN6P” value in data set [4] is 0.0002 ± 5.4e-05 s⁻¹. For the same variant, the “self-cleavage kobs at 2500 uM GlcN6P” value in data set [5] is 0.000527 ± 0.0001 s⁻¹. For the same variant, the “self-cleavage kobs at 10000 uM GlcN6P” value in data set [6] is 0.00114 ± 0.00018 s⁻¹.

As for G32A C68G, the kcat in data set [1] turned out to be 3.18e-05 ± 4.2e-06 s⁻¹. In addition, the “self-cleavage kobs at 2500 uM GlcN6P” value in data set [5] was found to be 3.93e-05 ± 1.4e-05 s⁻¹. Also, the “self-cleavage kobs at 10000 uM GlcN6P” value in data set [6] stood at 2.81e-05 ± 9.3e-06 s⁻¹.

On to C50U C71G, for which the kcat in data set [1] is 3.46e-05 ± 1.4e-05 s⁻¹. Moreover, the “self-cleavage kobs at 640 uM GlcN6P” value in data set [4] came out at 4.43e-05 ± 1e-05 s⁻¹.

With A12U U57C, in data set [1], the kcat was determined as 0.00174 ± 0.00086 s⁻¹. In data set [2], the “self-cleavage kobs at 40 uM GlcN6P” value was 6.27e-05 ± 2.3e-05 s⁻¹. The “self-cleavage kobs at 160 uM GlcN6P” value in data set [3] amounted to 6.12e-05 ± 2.3e-05 s⁻¹. In addition, the “self-cleavage kobs at 640 uM GlcN6P” value in data set [4] is 0.000217 ± 3.9e-05 s⁻¹. Further, the “self-cleavage kobs at 2500 uM GlcN6P” value in data set [5] stood at 0.000638 ± 0.00014 s⁻¹. Moreover, the “self-cleavage kobs at 10000 uM GlcN6P” value in data set [6] worked out at 0.00126 ± 0.00038 s⁻¹.

Consider A33G C67U, for which, in data set [1], the kcat was found to be 2.01e-05 ± 2.6e-06 s⁻¹. The KM in data set [7] turned out to be 1350 ± 420 µM.

For the variant C16A A42G, the kcat in data set [1] is 0.00215 ± 0.00056 s⁻¹. Also, in data set [7], the KM stood at 2550 ± 900 µM. Also, the “self-cleavage kobs at 40 uM GlcN6P” value in data set [2] stood at 3.27e-05 ± 1.1e-05 s⁻¹. In data set [3], the “self-cleavage kobs at 160 uM GlcN6P” value stood at 0.000111 ± 2.3e-05 s⁻¹. In addition, the “self-cleavage kobs at 640 uM GlcN6P” value in data set [4] was 0.00062 ± 0.00012 s⁻¹. Besides, the “self-cleavage kobs at 2500 uM GlcN6P” value in data set [5] was 0.00103 ± 0.0002 s⁻¹. The “self-cleavage kobs at 10000 uM GlcN6P” value in data set [6] turned out to be 0.00165 ± 0.00043 s⁻¹.

In the case of U30G A52G, the kcat in data set [1] worked out at 0.000498 ± 6.7e-05 s⁻¹. Also, in data set [7], the KM is 2430 ± 620 µM. The “self-cleavage kobs at 160 uM GlcN6P” value in data set [3] stood at 4.03e-05 ± 2e-05 s⁻¹. Moreover, the “self-cleavage kobs at 640 uM GlcN6P” value in data set [4] was 9.63e-05 ± 1.4e-05 s⁻¹. In addition, the “self-cleavage kobs at 2500 uM GlcN6P” value in data set [5] was 0.00033 ± 5.9e-05 s⁻¹. Besides, in data set [6], the “self-cleavage kobs at 10000 uM GlcN6P” value was found to be 0.000388 ± 4.4e-05 s⁻¹.

A14U U65A: the kcat in data set [1] turned out to be 0.0015 ± 0.00017 s⁻¹. The KM in data set [7] is 4460 ± 760 µM. Further, the “self-cleavage kobs at 160 uM GlcN6P” value in data set [3] is 4.54e-05 ± 1.3e-05 s⁻¹. Moreover, the “self-cleavage kobs at 640 uM GlcN6P” value in data set [4] was 0.000203 ± 2.7e-05 s⁻¹. In addition, the “self-cleavage kobs at 2500 uM GlcN6P” value in data set [5] is 0.000449 ± 0.00012 s⁻¹. For the same variant, the “self-cleavage kobs at 10000 uM GlcN6P” value in data set [6] turned out to be 0.00105 ± 0.00012 s⁻¹.

As for G7U G60A, the kcat in data set [1] was less than 1e-05 s⁻¹. Further, the “self-cleavage kobs at 640 uM GlcN6P” value in data set [4] was less than 1e-05 s⁻¹. Also, in data set [5], the “self-cleavage kobs at 2500 uM GlcN6P” value is less than 1e-05 s⁻¹. Moreover, the “self-cleavage kobs at 10000 uM GlcN6P” value in data set [6] is less than 1e-05 s⁻¹.

As to G37A U47A, the kcat in data set [1] worked out at 0.00374 ± 0.0017 s⁻¹. Moreover, the “self-cleavage kobs at 40 uM GlcN6P” value in data set [2] was 4.6e-05 ± 1.8e-05 s⁻¹. Besides, in data set [3], the “self-cleavage kobs at 160 uM GlcN6P” value is 7.83e-05 ± 1.8e-05 s⁻¹. In addition, the “self-cleavage kobs at 640 uM GlcN6P” value in data set [4] turned out to be 0.000278 ± 4.8e-05 s⁻¹. Moreover, the “self-cleavage kobs at 2500 uM GlcN6P” value in data set [5] came to 0.000752 ± 0.00014 s⁻¹. In addition, the “self-cleavage kobs at 10000 uM GlcN6P” value in data set [6] was 0.00229 ± 0.00044 s⁻¹.

With A39U G40A, in data set [1], the kcat was 0.00855 ± 0.0042 s⁻¹. In addition, the “self-cleavage kobs at 40 uM GlcN6P” value in data set [2] is 0.000239 ± 2.5e-05 s⁻¹. In addition, in data set [3], the “self-cleavage kobs at 160 uM GlcN6P” value stood at 0.000664 ± 0.0001 s⁻¹. Also, in data set [4], the “self-cleavage kobs at 640 uM GlcN6P” value is 0.00165 ± 0.00021 s⁻¹. For the same variant, the “self-cleavage kobs at 2500 uM GlcN6P” value in data set [5] turned out to be 0.00537 ± 0.0012 s⁻¹. In data set [6], the “self-cleavage kobs at 10000 uM GlcN6P” value was determined as 0.00952 ± 0.0017 s⁻¹.

The values are drawn from the supplement of paper PMC7125110.
